Experimental data published in patent publication US12358960B2, “Selective targeting of ubiquitin- and ubiquitin-like E1-activating enzymes by structurally-stabilized peptides” (Dana-Farber Cancer Institute, Inc., priority 2019, dated 2025).
“Also recorded” adds a separate entry of the source. Bridge positions count the residues as written; N and C are the ends. Square brackets hold non-standard residues; d marks the D form. Ends that are not written are not given here. * marks the point of attachment. Biotin = O=C1N[C@H]2[C@H](CS[C@H]2CCCCC(=O)*)N1; R8 = C=CCCCCCC[C@@](C)(N)C(=O)O; S5 = C=CCCC[C@](C)(N)C(=O)O; Nle = CCCC[C@H](N)C(=O)O; Dab = NCC[C@H](N)C(=O)O; Acryloyl = C=CC(=O)*

Assays:
[1] = Circular dichroism, α-helicity; type: physicochemical; conditions: in solution
Procedure: Assays to Determine α-Helicity: Compounds are dissolved in an aqueous solution (e.g., 5 mM potassium phosphate solution at pH 7, or distilled H2O, to concentrations of 25-50 μM). Circular dichroism (CD) spectra are obtained on a spectropolarimeter (e.g., Jasco J-710, Aviv) using standard measurement parameters (e.g., temperature, 20° C.; wavelength, 190-260 nm; step resolution, 0.5 nm; speed, 20 nm/sec; accumulations, 10; response, 1 sec; bandwidth, 1 nm; path length, 0.1 cm). The α-helical content of each peptide is calculated by dividing the mean residue ellipticity by the reported value for a model helical decapeptide (Yang et al., Methods Enzymol. 130:208 (1986)).
Circular Dichroism: Acetylated peptides were dissolved in 10% (vol/vol) acetonitrile in water for circular dichroism analyses, performed on an Aviv Biomedical spectrophotometer, as reported (see Bird et. al., Methods in Enzymol., 446:369-386 (2008)).

[2] = target: T1, Human E1 activating enzyme UBA1 (Homo sapiens, UniProt P22314); experiment: In vitro enzyme inhibition assay: E1-mediated ubiquitin thioester transfer to E2 (band shift, silver stain); type: biochemical; conditions: for inhibition of E1-mediated thioester transfer to E2 by mutant / additional stapled peptides: SAH-UBE2A-11 variants and controls, Examples 4, 7, 13; for inhibition of E1-mediated thioester transfer to E2 by warhead-bearing stapled peptides: Example 8; for inhibition of E1-mediated ubiquitin transfer to E2 (conversion of E2 to E2~ubiquitin): 100 μM peptide, staple scan
T1 sequence (P22314 1-1058): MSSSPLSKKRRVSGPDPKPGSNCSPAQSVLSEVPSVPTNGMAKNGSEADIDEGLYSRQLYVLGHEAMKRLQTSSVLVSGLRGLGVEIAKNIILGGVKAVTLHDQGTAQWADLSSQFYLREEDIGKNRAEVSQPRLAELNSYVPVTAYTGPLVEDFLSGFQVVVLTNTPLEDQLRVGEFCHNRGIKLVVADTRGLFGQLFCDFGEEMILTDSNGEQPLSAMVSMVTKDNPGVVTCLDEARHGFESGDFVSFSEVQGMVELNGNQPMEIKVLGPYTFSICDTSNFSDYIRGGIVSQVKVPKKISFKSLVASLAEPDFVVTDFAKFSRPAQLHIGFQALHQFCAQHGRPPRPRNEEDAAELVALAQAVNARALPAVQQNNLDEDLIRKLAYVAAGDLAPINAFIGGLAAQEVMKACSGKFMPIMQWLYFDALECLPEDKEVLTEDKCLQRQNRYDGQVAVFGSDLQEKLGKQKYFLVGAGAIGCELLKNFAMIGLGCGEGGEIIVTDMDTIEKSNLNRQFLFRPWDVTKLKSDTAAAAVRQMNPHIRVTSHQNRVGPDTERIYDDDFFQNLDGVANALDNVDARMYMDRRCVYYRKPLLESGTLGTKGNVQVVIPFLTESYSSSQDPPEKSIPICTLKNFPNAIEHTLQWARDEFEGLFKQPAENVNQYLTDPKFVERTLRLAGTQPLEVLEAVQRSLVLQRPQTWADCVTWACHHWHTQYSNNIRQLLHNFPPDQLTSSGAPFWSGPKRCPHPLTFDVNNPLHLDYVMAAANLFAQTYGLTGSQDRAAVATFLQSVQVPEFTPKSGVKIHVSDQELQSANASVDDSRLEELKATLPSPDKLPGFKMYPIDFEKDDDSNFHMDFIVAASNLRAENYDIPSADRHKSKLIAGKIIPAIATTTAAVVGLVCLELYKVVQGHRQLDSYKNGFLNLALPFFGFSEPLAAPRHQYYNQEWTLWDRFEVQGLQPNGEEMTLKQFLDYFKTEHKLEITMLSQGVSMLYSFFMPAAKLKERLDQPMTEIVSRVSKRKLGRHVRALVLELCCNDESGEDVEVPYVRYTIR
Procedure: In vitro Enzyme Inhibition Assays: To assess an E2 hA peptide's inhibition of an E1 enzyme, an in vitro enzyme inhibition assay can be used, for example. The in vitro enzyme inhibition assay measures an E2 hA peptide's ability to inhibit conjugation of ubiquitin to E2 by E1. Briefly, recombinant E1 (e.g., UBA1), recombinant E2 (e.g., UBE2A), ubiquitin, and Mg-ATP are combined in the presence of an E2 hA peptide or vehicle control (e.g., 1% DMSO) for a period of time (e.g., 30 minutes) at room temperature in a buffer containing, e.g., 50 mM NaCl, 50 mM HEPES pH 7.5. Control reaction includes no E1. Reactions are quenched by addition of SDS-containing loading dye and samples are resolved on a gel (e.g., a 4-12% Bis-Tris protein gel) under nonreducing conditions. Proteins on the gel are visualized via, e.g., silver stain. Conjugation of ubiquitin to E2 by E1 is monitored by conversion of free E2 (˜17 kDa) to E2˜ubiquitin conjugate (˜26 kDa).
Control reaction included no E1 enzyme. Reactions were quenched by addition of SDS-containing loading dye and samples were resolved on a 4-12% Bis-Tris protein gel under nonreducing conditions. Proteins were visualized via silver stain. Conjugation of ubiquitin to E2 by E1 was monitored by conversion of free E2 (17 kDa) to E2˜ubiquitin conjugate (26 kDa).
The ability of the peptides to inhibit E1-mediated thioester transfer to E2 was evaluated. Human E1 activating enzyme UBA1 (10 nM), UbcH5b E2 enzyme (150 nM), ubiquitin (1 μM), and Mg-ATP (20 μM) were combined in the presence of stapled peptide at a range of concentrations or vehicle control (1% DMSO) for 45 minutes at room temperature in buffer containing 50 mM NaCl, 50 mM HEPES, 1 mM TCEP pH 7.5. Reactions were quenched by addition of SDS-containing loading dye and samples were resolved on a 4-12% Bis-Tris protein gel under nonreducing conditions. Proteins were visualized via silver stain. Conjugation of ubiquitin to E2 by E1 was monitored by conversion of free E2 (17 kDa) to E2˜ubiquitin conjugate (26 kDa). Inhibition percentage was calculated from densitometry of silver stain images.
Streptavidin-biotin pull-down assays: For recombinant protein pull-downs, 10 pmol recombinant human UBA1 was incubated with 5 nmol C-terminally biotinylated SAH-UBE2A or DMSO vehicle control in a total volume of 1 mL binding buffer (50 mM NaCl, 20 mM HEPES, pH 7.4, 5 mM DTT) for 1.5 hours at 4° C. 30 μL of pre-equilibrated streptavidin agarose beads were then added and incubated for an additional 1.5 hours at 4° C. The beads were pelleted by centrifugation and washed three times with NP-40 buffer (20 mM HEPES, pH 7.4, 50 mM NaCl, 5 mM DTT, 0.5% [v/v] NP-40) before eluting the protein sample from the beads by heating at 70° C. for 10 min in 3×SDS loading buffer. Samples were subjected to electrophoresis and silver staining (Pierce 24612). For pull-down from cellular lysates, 0.75 mg HeLa cell lysate was incubated with 5 nmol C-terminally biotinylated SAH-UBE2A or DMSO vehicle control in a total volume of 1 mL binding buffer (50 mM NaCl, 20 mM HEPES, pH 7.4, 5 mM DTT) containing protease-phosphatase inhibitor cocktail for 2 hours at 4° C. 30 μL of pre-equilibrated streptavidin agarose beads (ThermoFisher 20357) were then added and incubated for an additional 1.5 hours at 4° C. The beads were pelleted by centrifugation and washed three times with NP-40 buffer (20 mM HEPES, pH 7.4, 50 mM NaCl, 5 mM DTT, 0.5% [v/v] NP-40) before eluting the protein sample from the beads by heating at 70° C. for 10 min in 3×SDS loading buffer. Proteins were separated by SDS-PAGE gel electrophoresis and detected by western blot against UBE1 (Abcam ab34711). In vitro Enzyme Inhibition Assays: Recombinant human E1 activating enzyme UBA1 (10 nM), E2 enzyme (150 nM), ubiquitin (1 μM), and Mg-ATP (20 μM) are combined in the presence of peptide or vehicle control (1% DMSO) for 45 minutes at room temperature in buffer containing 50 mM NaCl, 50 mM HEPES pH 7.5. Control reaction includes no E1 enzyme. […]

BPSSASRQLLRKQLKEIQZ ([Nle]PSSASRQLLRKQLKEIQK(Biotin)) [Ubc15-1, unmodified Ubc15 peptide, Z is biotinylated lysine]
helicity / helical content [1]: 19%

BSTPARRRLBRDFKRLQ ([Nle]STPARRRL[Nle]RDFKRLQ-NH2; not fully specified (N-terminus)) [UBE2A, unmodified (unstapled) UBE2A peptide, B is norleucine]
helicity / helical content [1]: 21% | inhibition of E1-mediated thioester transfer to E2 by mutant / additional stapled peptides [2]: no inhibitory activity; also recorded: negligible inhibitory activity

BPSSAX1RQLLRJX2LKEIQ ([Nle]PSSA[R8]RQLLR[Dab](Acryloyl)[S5]LKEIQ; staple 6-13; not fully specified (N-terminus, C-terminus); printed as BPSSAX1RQLLRJX2LKEIQ) [SEQ ID NO:842, warhead-bearing stapled peptide, J acrylamide-bearing Dab at A8, staple A2 and A9]
inhibition of E1-mediated thioester transfer to E2 by warhead-bearing stapled peptides [2]: inhibited E1-mediated thioester transfer to E2

BPSSAX1RQLLRKX2LJEIQ ([Nle]PSSA[R8]RQLLRK[S5]L[Dab](Acryloyl)EIQ; staple 6-13; not fully specified (N-terminus, C-terminus); printed as BPSSAX1RQLLRKX2LJEIQ) [SEQ ID NO:844, warhead-bearing stapled peptide, J acrylamide-bearing Dab at A11, staple A2 and A9]
inhibition of E1-mediated thioester transfer to E2 by warhead-bearing stapled peptides [2]: inhibited E1-mediated thioester transfer to E2

BSTPX1RARAARX2FKRLQ (Ac-[Nle]STP[R8]RARAAR[S5]FKRLQ-NH2; staple 5-12) [SAH-UBE2A-AAA]
inhibition of E1-mediated thioester transfer to E2 by mutant / additional stapled peptides [2]: no inhibitory activity; also recorded: progressively impaired inhibitory activity as compared to the single point mutation peptide SAH-UBE2A-R7E; also recorded: negligible inhibitory activity

BPSSASRQLLRKQX2KEIX2 [SEQ ID NO:48]
inhibition of E1-mediated ubiquitin transfer to E2 (conversion of E2 to E2~ubiquitin) ([2]; UbcH5b E2 enzyme, 45 minutes): unable to inhibit E1-mediated ubiquitin transfer to E2

BPSSAX1RQLLRKX2LKEIQ [SEQ ID NO:50]
helicity / helical content [1]: 51% | inhibition of E1-mediated ubiquitin transfer to E2 (conversion of E2 to E2~ubiquitin) ([2]; UbcH5b E2 enzyme, 45 minutes): best in this panel at inhibiting E1-mediated ubiquitin transfer to E2 | inhibition of E1-mediated thioester transfer to E2, dose response ([2]; range of peptide concentrations, UbcH5b E2 enzyme, 45 minutes, listed as SAH-Ubc15-11): inhibited E1-mediated thioester transfer to E2 in a dose-dependent manner; also recorded: dose-dependently inhibit E1-mediated thioester transfer to E2

BSTPX1RARLBRX2FKRLQ (Ac-[Nle]STP[R8]RARL[Nle]R[S5]FKRLQ-NH2; staple 5-12) [SEQ ID NO:817]
inhibition of E1-mediated thioester transfer to E2 by mutant / additional stapled peptides [2]: impair the inhibitory activity of SAH-UBE2A-11

BX1LKRIHJX2LNDLARD ([Nle][R8]LKRIH[Dab](Acryloyl)[S5]LNDLARD; staple 2-9; not fully specified (N-terminus, C-terminus); printed as BX1LKRIHJX2LNDLARD) [SEQ ID NO:691, warhead-bearing stapled peptide, J acrylamide-bearing Dab at A8, staple A2 and A9]
inhibition of E1-mediated thioester transfer to E2 by warhead-bearing stapled peptides [2]: did not inhibit E1-mediated thioester transfer to E2

BPSSASRX2LLRX2QLKEIQ [SEQ ID NO:43]
inhibition of E1-mediated ubiquitin transfer to E2 (conversion of E2 to E2~ubiquitin) ([2]; UbcH5b E2 enzyme, 45 minutes): unable to inhibit E1-mediated ubiquitin transfer to E2

BX1LKRIHKX2LJDLARD ([Nle][R8]LKRIHK[S5]L[Dab](Acryloyl)DLARD; staple 2-9; not fully specified (N-terminus, C-terminus); printed as BX1LKRIHKX2LJDLARD) [SEQ ID NO:727, warhead-bearing stapled peptide, J acrylamide-bearing Dab at A11, staple A2 and A9]
inhibition of E1-mediated thioester transfer to E2 by warhead-bearing stapled peptides [2]: inhibited E1-mediated thioester transfer to E2
